Data: patent US20260248892A1 (Sanofi, published 2026)
Substitutions are numbered along the chain they refer to.

B1: scl-Fc fusion protein INS005 (Fc fusion)
chain: SFVNQHLCGSHLVEALHLVCGERGFAYTDKTEEYPGDVGIVEQCCTSICSLEQLENYCGGEAEDLQVGQVELGGGPGAGSLQPEGSLQGGPSVFLFPPKPKDTLMISRTPEVTCVVVDVSHEDPEVKFNWYVDGVEVHNAKTKPREEQYNSTYRVVSVLTVLHQDWLNGKEYKCKVSNKALPAPIEKTISKAKGQPREPQVYTLPPSRDELTKNQVSLTCLVKGFYPSDIAVEWESNGQPENNYKTTPPVLDSDGSFFLYSKLTVDKSRWQQGNVFSCSVMHEALHNHYTQKSLSLSPGGGGGSAESKYGPPCPPCPA
B2: scl-Fc fusion protein INS017 (Fc fusion)
chain: B1 chain with A26H, D29P, E32G, E33S, D37G, E52S
B3: scl-Fc fusion protein INS007 (Fc fusion)
chain: B1 chain with E32G, E33S, D37G
B4: scl-Fc fusion protein INS009 (Fc fusion)
chain: B1 chain with H17E, A26H, D29P, E32G, E33S, D37G
B5: scl-Fc fusion protein INS006 (Fc fusion)
chain: B1 chain with H17E, A26H
B6: scl-Fc fusion protein INS008 (Fc fusion)
chain: B1 chain with H17E, A26H, E32G, E33S, D37G
B7: scl-Fc fusion protein INS014 (Fc fusion)
chain: B1 chain with A26H, D29P, E32G, E33S, D37G, E52S, N56D
B8: scl-Fc fusion protein INS010 (Fc fusion)
chain: B1 chain with D29P
B9: scl-Fc fusion protein INS015 (Fc fusion)
chain: B1 chain with A26H, D29P, E52S
B10: scl-Fc fusion protein INS011 (Fc fusion)
chain: B1 chain with D29P, E32G, E33S, D37G
B11: scl-Fc fusion protein INS002 (Fc fusion)
chain: FVNQHLCGSHLVEALYLVCGERGFFYTDKTEEYPGDVGIVEQCCTSICSLEQLENYCGGEAEDLQVGQVELGGGPGAGSLQPLALEGSLQGGPSVFLFPPKPKDTLMISRTPEVTCVVVDVSHEDPEVKFNWYVDGVEVHNAKTKPREEQYNSTYRVVSVLTVLHQDWLNGKEYKCKVSNKALPAPIEKTISKAKGQPREPQVYTLPPSRDELTKNQVSLTCLVKGFYPSDIAVEWESNGQPENNYKTTPPVLDSDGSFFLYSKLTVDKSRWQQGNVFSCSVMHEALHNHYTQKSLSLSPGGGGGSAESKYGPPCPPCPA
B12: scl-Fc fusion protein INS012 (Fc fusion)
chain: FVNQHLCGSHLVEALHLVCGERGFHYTPKTEEYPGDVGIVEQCCTSICSLSQLEDYCGGEAEDLQVGQVELGGGPGAGSLQPEGSLQGGPSVFLFPPKPKDTLMISRTPEVTCVVVDVSHEDPEVKFNWYVDGVEVHNAKTKPREEQYNSTYRVVSVLTVLHQDWLNGKEYKCKVSNKALPAPIEKTISKAKGQPREPQVYTLPPSRDELTKNQVSLTCLVKGFYPSDIAVEWESNGQPENNYKTTPPVLDSDGSFFLYSKLTVDKSRWQQGNVFSCSVMHEALHNHYTQKSLSLSPGGGGGSAESKYGPPCPPCPA
B13: scl-Fc fusion protein INS016 (Fc fusion)
chain: B12 chain with E31G, E32S, D36G, D55N
B14: scl-Fc fusion protein INS013 (Fc fusion)
chain: B12 chain with E31G, E32S, D36G
B15: scl-Fc fusion protein INS018 (Fc fusion)
chain: B12 chain with H16E, E31G, E32S, D36G

Biological target: human insulin receptor isoform B (human, UniProt P06213 28-1382)
Assay: cell-based or functional assay

Row | hIR-B-phosphorylation [EC50 nM] mean [nM] | Binder
1 | 522 | B1
2 | 36 | B2
3 | 57.3 | B3
4 | 94.1 | B4
5 | 388 | B5
6 | 90 | B6
7 | 47.9 | B7
8 | 501 | B8
9 | 56.3 | B9
10 | 110 | B10
11 | 22.8 | B11
12 | 178 | B12
13 | 58.8 | B13
14 | 57.2 | B14
15 | 260 | B15

Biological target: Rat IR (rat, UniProt P15127 27-1383)
Assay: cell-based or functional assay

Sequence of Rat IR (P15127 27-1383): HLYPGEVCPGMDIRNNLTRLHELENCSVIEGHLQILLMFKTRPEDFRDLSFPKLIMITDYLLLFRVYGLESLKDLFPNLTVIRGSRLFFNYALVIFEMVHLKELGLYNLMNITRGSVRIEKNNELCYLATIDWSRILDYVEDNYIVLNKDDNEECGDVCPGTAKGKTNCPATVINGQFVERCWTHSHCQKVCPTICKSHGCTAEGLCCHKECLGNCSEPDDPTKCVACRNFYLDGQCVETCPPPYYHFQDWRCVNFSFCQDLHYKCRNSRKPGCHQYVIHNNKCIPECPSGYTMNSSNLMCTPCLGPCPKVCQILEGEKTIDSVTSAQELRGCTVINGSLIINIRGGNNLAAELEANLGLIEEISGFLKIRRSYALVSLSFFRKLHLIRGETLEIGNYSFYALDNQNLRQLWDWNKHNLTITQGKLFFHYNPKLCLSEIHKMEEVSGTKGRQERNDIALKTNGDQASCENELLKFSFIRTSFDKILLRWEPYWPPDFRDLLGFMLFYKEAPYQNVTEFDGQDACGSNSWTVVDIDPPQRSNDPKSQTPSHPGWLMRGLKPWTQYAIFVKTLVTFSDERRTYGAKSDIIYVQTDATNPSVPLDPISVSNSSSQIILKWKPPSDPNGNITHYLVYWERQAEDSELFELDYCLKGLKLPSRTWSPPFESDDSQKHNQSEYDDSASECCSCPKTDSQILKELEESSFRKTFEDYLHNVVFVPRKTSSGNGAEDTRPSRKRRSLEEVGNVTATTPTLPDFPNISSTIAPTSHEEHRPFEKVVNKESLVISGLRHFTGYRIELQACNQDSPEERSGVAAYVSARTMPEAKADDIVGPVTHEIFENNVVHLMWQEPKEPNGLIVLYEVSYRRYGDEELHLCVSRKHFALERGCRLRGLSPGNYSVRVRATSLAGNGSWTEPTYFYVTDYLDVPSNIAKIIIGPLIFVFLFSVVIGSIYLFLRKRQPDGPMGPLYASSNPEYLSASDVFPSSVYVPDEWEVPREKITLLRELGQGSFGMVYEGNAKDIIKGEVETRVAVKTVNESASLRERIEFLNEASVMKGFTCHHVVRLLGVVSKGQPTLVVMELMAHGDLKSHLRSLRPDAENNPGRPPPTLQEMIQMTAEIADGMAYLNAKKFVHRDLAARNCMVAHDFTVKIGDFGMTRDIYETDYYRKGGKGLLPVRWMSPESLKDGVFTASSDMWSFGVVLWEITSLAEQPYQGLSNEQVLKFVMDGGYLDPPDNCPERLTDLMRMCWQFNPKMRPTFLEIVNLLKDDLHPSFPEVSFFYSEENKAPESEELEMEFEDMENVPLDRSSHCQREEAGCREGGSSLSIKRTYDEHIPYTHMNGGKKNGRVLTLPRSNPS

Row | Rat IR phosphorylation [EC50 nM] mean [nM] | Binder
16 | 1570 | B1
17 | 53.6 | B2
18 | 54.8 | B3
19 | 137 | B4
20 | 286 | B5
21 | 440 | B6
22 | 92.8 | B7
23 | 390 | B8
24 | 95.7 | B9
25 | 169 | B10
26 | 32.1 | B11
27 | 124 | B12
28 | 85.5 | B13
29 | 23.6 | B14
30 | 233 | B15

Biological target: human insulin receptor isoform A (human, UniProt P06213-2 28-1370)
Assay: cell-based or functional assay

Row | hIR-A phosphorylation [EC50 nM] mean [nM] | Binder
31 | 1510 | B1
32 | 70.6 | B2
33 | 82.5 | B3
34 | 332 | B4
35 | 1110 | B5
36 | 1410 | B6
37 | 300 | B7
38 | 1780 | B8
39 | 211 | B9
40 | 414 | B10
41 | 36 | B11
42 | 466 | B12
43 | 180 | B13
44 | 5.58 | B14
45 | 536 | B15

Biological target: Pig IR (pig, UniProt F1SCL0 28-1382)
Assay: cell-based or functional assay

Row | Pig IR phosphorylation [EC 50 nM] mean [nM] | Binder
46 | 61.4 | B1
47 | 26.3 | B2
48 | 10.8 | B3
49 | 36.6 | B4
50 | 52.5 | B5
51 | 21.2 | B6
52 | 28.4 | B7
53 | 23.5 | B8
54 | 33.5 | B9
55 | 39.6 | B10
56 | 8.12 | B11
57 | 50.6 | B12
58 | 41.5 | B13
59 | 4.17 | B14
60 | 60 | B15
